The experiment addresses T1, TRAP1 (human mitochondrial Hsp90) fused to SpyTag (human, UniProt Q12931 60-704, limits assumed).
T1 construct: Applied at 270 nM; also called TRAP1-SpyTag; TRAP1 with SpyTag
T1 sequence: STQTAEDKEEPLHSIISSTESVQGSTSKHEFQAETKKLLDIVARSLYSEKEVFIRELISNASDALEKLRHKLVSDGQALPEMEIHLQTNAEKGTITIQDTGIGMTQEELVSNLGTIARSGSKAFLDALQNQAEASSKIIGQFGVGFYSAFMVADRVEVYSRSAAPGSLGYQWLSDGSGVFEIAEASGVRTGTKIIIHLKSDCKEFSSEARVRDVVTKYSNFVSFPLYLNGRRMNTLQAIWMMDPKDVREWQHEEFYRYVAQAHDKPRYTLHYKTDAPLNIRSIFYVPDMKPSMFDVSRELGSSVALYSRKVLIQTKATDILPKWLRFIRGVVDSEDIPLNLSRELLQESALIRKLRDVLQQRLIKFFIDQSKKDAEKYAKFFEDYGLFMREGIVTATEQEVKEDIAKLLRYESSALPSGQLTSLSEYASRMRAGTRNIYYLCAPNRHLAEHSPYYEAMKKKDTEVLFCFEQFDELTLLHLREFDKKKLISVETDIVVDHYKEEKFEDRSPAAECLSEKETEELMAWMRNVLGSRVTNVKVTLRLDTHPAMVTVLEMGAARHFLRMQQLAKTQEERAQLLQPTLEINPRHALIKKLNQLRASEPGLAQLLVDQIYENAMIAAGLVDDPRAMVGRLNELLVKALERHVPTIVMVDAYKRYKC
The experiment in a line: cryo-EM particle density on SpyTag affinity grid after washing. The method, then: The irreversible covalent bond forms within minutes and is highly specific and robust, paving the way for “purification on the grid”. A buffer with a pH of 7.5 containing 20 mM HEPES, 60 mM KCl was used throughout the process. SpyCatcher was diluted with buffer to a final concentration of 1.4 μM. SpyTag peptide was first dissolved in DMSO to a concentration of 560 μM and then diluted with buffer to a final concentration of 2.8 μM. […] The grid was washed with DI water and ethanol 3 times, and dried in ambient for 1 hour. Then the grid was picked up by tweezers from VITROBOT™ IV (Fisher Thermo Scientfic) and placed horizontally.
After coupling the SpyTag or SpyCatcher to the maleimide grids, incubation with a cognate-tagged protein of interest efficiently formed a stable attachment in a matter of minutes. In a first example, a SpyTag grid was exposed to a dilute solution (270 nM) of the dimeric mitochondrial Hsp90 molecular chaperone (TRAP1, ˜150KDa) fused to either SpyTag (control) or SpyCatcher (cognate sample, total molecular weight ˜165KDa). The grids were extensively washed to remove unbound or loosely adsorbed proteins. TRAP1 with SpyCatcher or SpyTag was diluted in buffer with 1 mM ADP-BeFₓ/MgCl₂ and was incubated at 37° C. for 30 min to achieve a homogenous closed state of TRAP1²⁴. The concentration of TRAP1 was 270 nM in all cases. […]

Experimental findings from US20210310910A1 (University of California, published 2021) are described below.

Ends that are not written are not given here.

B1: SpyTag peptide anchored to the graphene oxide grid via a PEG spacer (peptide)
peptide: VPTIVMVDAYKRYKC
modifications: also: Cys coupled to azide-PEG-maleimide on graphene oxide film, position not given here
notes: also called SpyTag grid
Turning to B1, the binding result is given as “no binding (tested: 270 nM)”.
